Assay results as given in the supplement of paper PMC5998384.

Legend:
HeLa Kyoto [1] = assay: solubility change mitosis vs G1/S (difference of NP-40 vs SDS log2 ratios) (log2 ratio difference); higher = more soluble in mitosis
HeLa Kyoto [2] = assay: melting temperature (median over replicates), in situ; higher = more thermally stable
HeLa Kyoto [3] = assay: solubility in G1/S (NP-40 vs SDS abundance) (log2 ratio); higher = more soluble; conditions: cell cycle stage: G1/S
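Throughout, for melting temperature (median over replicates), in situ: HeLa Kyoto cells synchronized by double thymidine or nocodazole block, proteins quantified by TMT10plex mass spectrometry, three independent biological replicates.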
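Throughout, for solubility change mitosis vs G1/S (difference of NP-40 vs SDS log2 ratios): synchronized HeLa Kyoto cells (double thymidine block for G1/S, nocodazole release for mitosis), protein amounts in NP-40 versus SDS lysates quantified by mass spectrometry, three biological replicates.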
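Throughout, for solubility in G1/S (NP-40 vs SDS abundance): HeLa Kyoto cells arrested at G1/S by double thymidine block, proteins quantified by TMT10plex mass spectrometry in mild NP-40 versus SDS extracts, three biological replicates.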

GNPTG, sequence (chain, as listed by the source): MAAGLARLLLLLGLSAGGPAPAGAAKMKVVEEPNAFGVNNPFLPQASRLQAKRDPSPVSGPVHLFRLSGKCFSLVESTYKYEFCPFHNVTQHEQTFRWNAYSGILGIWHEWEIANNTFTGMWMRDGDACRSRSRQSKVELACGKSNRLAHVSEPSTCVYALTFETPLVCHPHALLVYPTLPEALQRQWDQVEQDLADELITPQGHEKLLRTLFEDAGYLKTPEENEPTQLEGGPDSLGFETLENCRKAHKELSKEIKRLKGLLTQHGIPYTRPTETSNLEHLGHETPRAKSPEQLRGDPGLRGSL

For GNPTG, the “solubility change mitosis (log2)” value (HeLa Kyoto [1]) was 0.688, the melting temperature (HeLa Kyoto [2]; cell cycle stage: G1/S) was 54 °C and the melting temperature (HeLa Kyoto [2]; cell cycle stage: mitosis) was 53.9 °C. The “solubility in G1/S (log2)” value (HeLa Kyoto [3]) was -0.582.
With “MQSPAVLVTSRRLQNAHTGLDLTVPQHQEVRGKMMSGHVEYQILVVTRLAAFKSAKHRPEDVVQFLVSKKYSEIEEFYQKLSSRYAAASLPPLPRKVLFVGESDIRERRAVFNEILRCVSKDAELAGSPELLEFLGTRSPGAAGLTSRDSSVLDGTDSQTGNDEEAFDFFEEQDQVAEEGPPVQSLKGEDAEESLEEEEALDPLGIMRSKKPKKHPKVAVKAKPSPRLTIFDEEVDPDEGLFGPGRKLSPQDPSEDVSSVDPLKLFDDPDLGGAIPLGDSLLLPAACESGGPTPSLSHRDASKELFRVEEDLDQILNLGAEPKPKPQLKPKPPVAAKPVIPRKPAVPPKAGPAEAVAGQQKPQEQIQAMDEMDILQYIQDHDTPAQAAPSLF [HS1BP3]” the “solubility change mitosis (log2)” value (HeLa Kyoto [1]) was 0.119, the melting temperature (HeLa Kyoto [2]; cell cycle stage: G1/S) was 49.7 °C and the melting temperature (HeLa Kyoto [2]; cell cycle stage: mitosis) was 50.5 °C. For the same substance, the “solubility in G1/S (log2)” value (HeLa Kyoto [3]) was 0.292.
With “MAMVVSTWRDPQDEVPGSQGSQASQAPPVPGPPPGAPHTPQTPGQGGPASTPAQTAAGGQGGPGGPGSDKQQQQQHIECVVCGDKSSGKHYGQFTCEGCKSFFKRSVRRNLSYTCRANRNCPIDQHHRNQCQYCRLKKCLKVGMRREAVQRGRMPPTQPTHGQFALTNGDPLNCHSYLSGYISLLLRAEPYPTSRFGSQCMQPNNIMGIENICELAARMLFSAVEWARNIPFFPDLQITDQVALLRLTWSELFVLNAAQCSMPLHVAPLLAAAGLHASPMSADRVVAFMDHIRIFQEQVEKLKALHVDSAEYSCLKAIVLFTSDACGLSDVAHVESLQEKSQCALEEYVRSQYPNQPTRFGKLLLRLPSLRTVSSSVIEQLFFVRLVGKTPIETLIRDMLLSGSSFNWPYMAIQ [NR2F2]” the “solubility change mitosis (log2)” value (HeLa Kyoto [1]) was -0.152, the melting temperature (HeLa Kyoto [2]; cell cycle stage: mitosis) was 50.3 °C and the “solubility in G1/S (log2)” value (HeLa Kyoto [3]) was -0.00984.
“MEGQSVEELLAKAEQDEAEKLQRITVHKELELQFDLGNLLASDRNPPTGLRCAGPTPEAELQALARDNTQLLINQLWQLPTERVEEAIVARLPEPTTRLPREKPLPRPRPLTRWQQFARLKGIRPKKKTNLVWDEVSGQWRRRWGYQRARDDTKEWLIEVPGNADPLEDQFAKRIQAKKERVAKNELNRLRNLARAHKMQLPSAAGLHPTGHQSKEELGRAMQVAKVSTASVGRFQERLPKEKVPRGSGKKRKFQPLFGDFAAEKKNQLELLRVMNSKKPQLDVTRATNKQMREEDQEEAAKRRKMSQKGKRKGGRQGPGGKRKGGPPSQGGKRKGGLGGKMNSGPPGLGGKRKGGQRPGGKRRK [RRS1]” was tested, and the “solubility change mitosis (log2)” value (HeLa Kyoto [1]) was 1.09, the melting temperature (HeLa Kyoto [2]; cell cycle stage: G1/S) was 55.2 °C and the melting temperature (HeLa Kyoto [2]; cell cycle stage: mitosis) was 53 °C. The “solubility in G1/S (log2)” value (HeLa Kyoto [3]) was -1.81.
“MAQEFVNCKIQPGKVVVFIKPTCPYCRRAQEILSQLPIKQGLLEFVDITATNHTNEIQDYLQQLTGARTVPRVFIGKDCIGGCSDLVSLQQSGELLTRLKQIGALQ [GLRX]” was tested, and the “solubility change mitosis (log2)” value (HeLa Kyoto [1]) was 0.0467, the melting temperature (HeLa Kyoto [2]; cell cycle stage: G1/S) was 54.7 °C and the melting temperature (HeLa Kyoto [2]; cell cycle stage: mitosis) was 53.4 °C. For the same substance, the “solubility in G1/S (log2)” value (HeLa Kyoto [3]) was 0.253.
In the case of SRCAP, the “solubility change mitosis (log2)” value (HeLa Kyoto [1]) is reported as 0.0318, the melting temperature (HeLa Kyoto [2]; cell cycle stage: G1/S) is reported as 48.8 °C and the melting temperature (HeLa Kyoto [2]; cell cycle stage: mitosis) is reported as 50.3 °C. For the same substance, the “solubility in G1/S (log2)” value (HeLa Kyoto [3]) was -0.24.
In the case of “MAATMKKAAAEDVNVTFEDQQKINKFARNTSRITELKEEIEVKKKQLQNLEDACDDIMLADDDCLMIPYQIGDVFISHSQEETQEMLEEAKKNLQEEIDALESRVESIQRVLADLKVQLYAKFGSNINLEADES [PFDN4]”, the “solubility change mitosis (log2)” value (HeLa Kyoto [1]) is reported as 0.523, the melting temperature (HeLa Kyoto [2]; cell cycle stage: G1/S) is reported as 55.5 °C and the melting temperature (HeLa Kyoto [2]; cell cycle stage: mitosis) is reported as 53.5 °C. For the same substance, the “solubility in G1/S (log2)” value (HeLa Kyoto [3]) was -0.219.
“MSATSVDTQRTKGQDNKVQNGSLHQKDTVHDNDFEPYLTGQSNQSNSYPSMSDPYLSSYYPPSIGFPYSLNEAPWSTAGDPPIPYLTTYGQLSNGDHHFMHDAVFGQPGGLGNNIYQHRFNFFPENPAFSAWGTSGSQGQQTQSSAYGSSYTYPPSSLGGTVVDGQPGFHSDTLSKAPGMNSLEQGMVGLKIGDVSSSAVKTVGSVVSSVALTGVLSGNGGTNVNMPVSKPTSWAAIASKPAKPQPKMKTKSGPVMGGGLPPPPIKHNMDIGTWDNKGPVPKAPVPQQAPSPQAAPQPQQVAQPLPAQPPALAQPQYQSPQQPPQTRWVAPRNRNAAFGQSGGAGSDSNSPGNVQPNSAPSVESHPVLEKLKAAHSYNPKEFEWNLKSGRVFIIKSYSEDDIHRSIKYSIWCSTEHGNKRLDSAFRCMSSKGPVYLLFSVNGSGHFCGVAEMKSPVDYGTSAGVWSQDKWKGKFDVQWIFVKDVPNNQLRHIRLENNDNKPVTNSRDTQEVPLEKAKQVLKIISSYKHTTSIFDDFAHYEKRQEEEEVVRKERQSRNKQ [YTHDF1]” was tested, and the “solubility change mitosis (log2)” value (HeLa Kyoto [1]) was -0.0272, the melting temperature (HeLa Kyoto [2]; cell cycle stage: mitosis) was 47.8 °C and the “solubility in G1/S (log2)” value (HeLa Kyoto [3]) was 0.14.
In the case of “MRRSAAPSQLQGNSFKKPKFIPPGRSNPGLNEEITKLNPDIKLFEGVAINNTFLPSQNDLRICSLNLPSEESTREINNRDNCSGKYCFEAPTLATLDPPHTVHSAPKEVAVSKEQEEKSDSLVKYFSVVWCKPSKKKHKKWEGDAVLIVKGKSFILKNLEGKDIGRGIGYKFKELEKIEEGQTLMICGKEIEVMGVISPDDFSSGRCFQLGGGSTAISHSSQVARKCFSNPFKSVCKPSSKENRQNDFQNCKPRHDPYTPNSLVMPRPDKNHQWVFNKNCFPLVDVVIDPYLVYHLRPHQKEGIIFLYECVMGMRMNGRCGAILADEMGLGKTLQCISLIWTLQCQGPYGGKPVIKKTLIVTPGSLVNNWKKEFQKWLGSERIKIFTVDQDHKVEEFIKSIFYSVLIISYEMLLRSLDQIKNIKFDLLICDEGHRLKNSAIKTTTALISLSCEKRIILTGTPIQNDLQEFFALIDFVNPGILGSLSSYRKIYEEPIILSREPSASEEEKELGERRAAELTCLTGLFILRRTQEIINKYLPPKIENVVFCRPGALQIELYRKLLNSQVVRFCLQGLLENSPHLICIGALKKLCNHPCLLFNSIKEKECSSTCDKNEEKSLYKGLLSVFPADYNPLLFTEKESGKLQVLSKLLAVIHELRPTEKVVLVSNYTQTLNILQEVCKRHGYAYTRLDGQTPISQRQQIVDGFNSQHSSFFIFLLSSKAGGVGLNLIGGSHLILYDIDWNPATDIQAMSRVWRDGQKYPVHIYRLLTTGTIEEKIYQRQISKQGLCGAVVDLTKTSEHIQFSVEELKNLFTLHESSDCVTHDLLDCECTGEEVHTGDSLEKFIVSRDCQLGPHHQKSNSLKPLSMSQLKQWKHFSGDHLNLTDPFLERITENVSFIFQNITTQATGT [RAD54B]”, the “solubility change mitosis (log2)” value (HeLa Kyoto [1]) is reported as -0.0255, the melting temperature (HeLa Kyoto [2]; cell cycle stage: G1/S) is reported as 46.5 °C and the melting temperature (HeLa Kyoto [2]; cell cycle stage: mitosis) is reported as 48.1 °C. For the same substance, the “solubility in G1/S (log2)” value (HeLa Kyoto [3]) was -0.106.
